A short description of the series: amyloid nucleation score (Sup35N fusion, yeast selection) (log enrichment); library NNK3; higher = more nucleation; inactive = no reads after selection. The essentials: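 Libraries of peptides of 20 random codons fused to Sup35N were expressed in psi-negative yeast and induced 24 hours with 100 μM copper sulfate. Selection was 7 days at 30°C on medium lacking adenine and uracil, and plasmid inserts were Illumina-sequenced before and after selection. Nucleation score is the DiMSum log enrichment of output over input reads, centred on the mode score of non-aggregating sequences, and sequences with under 100 input reads were left out.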

± gives the uncertainty stated by the source.

GQVYMSVRV: the amyloid nucleation score result was “inactive”.

For the substance WGFVWRVFLLKMC, the amyloid nucleation score result is “inactive”. On to SRNYLVSPIDAPEQQSCVEE, for which the amyloid nucleation score result is “inactive”. For the substance IEQPY, the amyloid nucleation score result is “inactive”.

In the case of HLAMWFNHLSLDCL, the amyloid nucleation score entry was “inactive”. For VTMFLGQWCSHSIVAMCIEG the value was “inactive”. Next, SSSVRMRCSCISLASNKCAY: 1.26 ± 0.12. For SPALQMWKACTWLNRTLSPV the value was 0.582 ± 0.15; for SNAKWGNISVGSRDYRTIRS, 1.48 ± 0.083; for RRCSIFLVVDIAGQLQRFMS, “inactive”. Consider HNLTNLVSILGNAS, for which the amyloid nucleation score entry was “inactive”. Consider QREGSNCAILCLL, for which the amyloid nucleation score entry was “inactive”.

For the substance VSAAYLRTVRQ, the amyloid nucleation score entry was “inactive”. For HDLAGQFISV the value was “inactive”. As for FLANPWCIVARLCSNHVIVH, the amyloid nucleation score result is “inactive”. Next, YFCGAVEESERLRGMEGNPD: 0.84 ± 0.2; HIMSEGHSLAMGCTCSNNYP: “inactive”; SVWESHVWHAHTQI: “inactive”.

As to KVRRGQLKIRS, the amyloid nucleation score result was “inactive”.

Take WGWGCLCMWYICYSCVYRDR: the amyloid nucleation score turned out to be 0.708 ± 0.28. For PNYKNYLGGNRVVS the value was “inactive”. Substance CIMALGSNVLFRLEN yielded an amyloid nucleation score of 1.51 ± 0.091. IETPSGLRKIELFMTCYYTS registered an amyloid nucleation score of 0.431 ± 0.41. For KAWETWAITTRSWKMFIRCL the value was 0.046 ± 0.96; for TTCWVYMLVILA, 1.38 ± 0.077; for SFNNACVFYMNSWLRWRI, 1.96 ± 0.083. For FSMWCVSCN the value was “inactive”; for VCAVSFGRWYG, “inactive”; for LTINDLCGFVKWLRTNCNVS, “inactive”. For NSFDGTYVYTYLPSELSTFP the value was “inactive”; for GLERLMDPLGNHRVRGDRVG, “inactive”. With WVWSKL, the amyloid nucleation score entry is “inactive”. For SYYFMGHLVFSVQTCIYTQG the value was 0.004 ± 0.26; for VEDGAGGP, “inactive”; for VSRPS, “inactive”. For NEVDDWFSD the value was “inactive”. Next, YFFIRVIALYLRVELSL: “inactive”; MSKWYYRWASYNCWFFDRPV: “inactive”. Take ILYWVYCSYSSNHDLYLFII: the amyloid nucleation score result is “inactive”. In the case of RHSLQMVRGTHSLCLWYNWV, the amyloid nucleation score result is “inactive”. TPTWFLRWWFTVSINNMVIW: the amyloid nucleation score result is “inactive”. For SRRFTLPGGSMFTEVLM, the amyloid nucleation score entry is “inactive”.

CCVCLCACRLFCSIVADYRR: the amyloid nucleation score result is “inactive”. Consider SLLGSRNRRSGWTQFVKLVW, for which the amyloid nucleation score result is “inactive”. For GFSYVVNYVFFTDVKNTAAL the value was 2.17 ± 0.076; for RRFTHRIEVRTSVAIS, “inactive”; for VLKDNF, “inactive”. DETVMFSFKFIVKSVVVDPR: the amyloid nucleation score result is “inactive”. For TVRYVYTCFINFQTLVHRRM the value was -0.784 ± 0.8; for CFRLPCVQESVPDKVLLTGS, “inactive”. Next, LVSEPFQMRSTGGIGLIAVY: “inactive”; WRFFVVRKNSTSA: “inactive”. Next, CGYCVFPFLNGITVGGRFGH: 1.29 ± 0.11; YYDYLRWLLEHIHFCTWGPY: “inactive”. On to ASTEKGGPNDGTCWYPYCTA, for which the amyloid nucleation score result is “inactive”. For KGSTSAVIGRYGWLRMRC the value was “inactive”; for AGPVF, “inactive”; for QCYCGLTPTANLDPLMRIWD, “inactive”. For WPDLQLLSSALPTPLQFSWL the value was “inactive”; for SHKFMRCGPQMASGCNWELA, “inactive”; for NRDVLQKPLIIAICQSFCSQ, 2.32 ± 0.083. Next, IRHRTIWSYGSFY: “inactive”. Take FPKLWLFNYYVNRRIRSSSF: the amyloid nucleation score entry was “inactive”.

In the case of HVSVFMCLCTVDTR, the amyloid nucleation score stood at 1.33 ± 0.078. Next, WGCALCSYDACRLES: 2.52 ± 0.068; LGYISFGFPVEDNWVHLACD: “inactive”. Next, EVGLRSLMFHSGQGIRMYNY: “inactive”. For RDIISMIVGWVLLQYLTTTY the value was -0.888 ± 1.

For the substance MMIIL, the amyloid nucleation score entry is “inactive”. For ISVRFLCNYCRRVYIRRCAV the value was “inactive”; for WASYDGPEKRRNHTRYYISM, “inactive”; for IHRNNNFFRRGYVWSYEEHH, “inactive”. Turning to DVGYSDMLVA, the amyloid nucleation score result was “inactive”.

In the case of CMFSPPCDLRGETVLRRPSL, the amyloid nucleation score came out at 0.143 ± 0.62.

As for FLGIDAPDWSMVSKAIGRMG, the amyloid nucleation score result was “inactive”. Consider PVRIVLVKPGIFMLDVTYSP, for which the amyloid nucleation score result is “inactive”. Next, LNYGSDLDSIYYSFTL: -0.896 ± 0.96; NGGIERLSWVRVWFRHTFQS: “inactive”; IESIH: “inactive”.

With RRAVVLSVRGWRSAVTSRFS, the amyloid nucleation score entry was “inactive”. With SGSAELARLHYRMELKAPYL, the amyloid nucleation score result was “inactive”.

QDWEMVN: the amyloid nucleation score entry is “inactive”.

Take TSTSAYILGPVTQ: the amyloid nucleation score result is “inactive”. For the substance GSYMYKKGLQF, the amyloid nucleation score entry was “inactive”.

Consider LVNGTFNFSDHAESESCSHS, for which the amyloid nucleation score entry was “inactive”.

Substance MSSSIILWNFCNMDRCSLVG displayed an amyloid nucleation score of 2.23 ± 0.087.

For the substance IGTSAWLEKRASLLVCMKKA, the amyloid nucleation score entry was “inactive”. YIALCLRYHTFLMKQEFHVG: the amyloid nucleation score entry was “inactive”.

Take RRLVMDTTRLACKRYWRFLN: the amyloid nucleation score entry is “inactive”. For GCHLVSCRRTGAL the value was “inactive”; for TRAYVVAIDQYFRGRRRNI, “inactive”. Next, IIPKRLDVR: -0.397 ± 0.7. For QYISIENHPEACMQGSTCYS the value was “inactive”; for MDRIFWD, “inactive”; for FDFKAYESCCSLLRYLMDPW, “inactive”. Take AFFTFGAPCIQDNESGDRGG: the amyloid nucleation score entry was “inactive”. Next, VKWWGAES: “inactive”.

Values taken from the supplement of paper PMC12042874.
